Test results reported in patent publication CN113980129A (DONGDA BIOTECHNOLOGY SUZHOU CO LTD, dated 2022).

T1: 重组人IL-11 (recombinant human interleukin-11) (human, UniProt P20809 22-199)
T1 construct: Called recombinant human IL-11 as immunogen; the assays say only IL-11; also called IL-11抗原; IL-11-Biotin
T1 sequence (looked up): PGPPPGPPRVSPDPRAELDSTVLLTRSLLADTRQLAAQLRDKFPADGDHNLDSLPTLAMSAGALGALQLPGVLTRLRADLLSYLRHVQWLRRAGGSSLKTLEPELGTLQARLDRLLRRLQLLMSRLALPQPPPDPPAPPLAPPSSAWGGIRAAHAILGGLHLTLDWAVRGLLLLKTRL


Assays:
[1] = molecular target: T1, 重组人IL-11 (recombinant human …); assay: ELISA, IL-11 coated on plate
[2] = molecular target: T1, 重组人IL-11 (recombinant human …); assay: cell-based or functional assay
[3] = molecular target: T1, 重组人IL-11 (recombinant human …); assay: ELISA, IL-11 coated on plate; remark: listed apart in the source
[4] = molecular target: T1, 重组人IL-11 (recombinant human …); assay: FACS, blocking of IL-11-biotin binding to 293T-IL-11Rα/gp130 cells
[5] = molecular target: T1, 重组人IL-11 (recombinant human …); assay: SPR (Biacore), antibody captured on anti-human IgG CM5 chip, IL-11 as analyte

Binder | binding result [1] | Kd [5] [nM] | koff [5] [s⁻¹] | kon [5] [M⁻¹ s⁻¹] | other results
16F3 (antibody, V domains shown, Mouse hybridoma antibody purified on Protein A) VH: QVQLQQSGAELVRPGVSVKISCKGSGDTFTDYAMHWVKQSHAKSLEWIGVISTYYGDVSYNQKFKGKATMTVDKSSSTAYMELVRLTSEDSAIYYCARGYYDYAWFAYWGQGTLVTVSA VL: QIVLTQSPAIMSASPGEKVTMTCSASSSLNYMHWYQQKSGTSPKRWIYDTSKLASGVPARFSGSGSGTSYSLTISSMEAEDAATYYCQQWSSNPLTFGAGTKLELK | binds | – | – | – | –
4A2 (antibody, V domains shown, Mouse hybridoma antibody purified on Protein A) VH: QVQLQQSGGELVRPGVSVKISCKGSGYKITDYAMHWVKQSHAESLEWIGVISSYYGDTSYNQKFKGKATMTVDISSSTAYMEIARLTSEDSAIYYCAIGLWDVGYFDYWGQGTTLTVSS VL: QIVLTQSPAIMSASPGEKVTMTCSASSSVSYMQWYQQKSGTSPKRWIYDTSKLASGVPARFSGSGSGTSYSLTISSMEAEDAATYYCQQWVSKAVTFGSGTKLEIK | binds | – | – | – | –
1D12 (antibody, V domains shown, Mouse hybridoma antibody purified on Protein A) VH: EVQLQQFGAELVKPGAAVKISCKASGYTFTDYNMDWVRQSHGKSLEWIGEINPNYDSTRYNQKFKGKATLTVDKSSSTAYMELRSLTSEDTAVYYCARSDYYAMDYWGQGTSVTVSS VL: SIVMTQTPSFLLVSAGDRVTITCKASQSVSNDVAWYQQKPGQSPKLLIYYASNRFTGVPDRFTGSGFGTDFTFTISTVQTGDLAVYFCRQDYISPYTFGGGTKLEIK | binds | – | – | – | –
14E1 (antibody, V domains shown, Mouse hybridoma antibody purified on Protein A) VH: EVQLQQSGPVLVKPGASVKMSCKASGYTFTDYYMNWVKQSHGKSLEWIGVFNPYNGGTVYNQKFKGKATLTVDKSSSTAYMELSSLTSEDSAVYYCAREDYGSYYVVFDYWGQGTTLTVSS VL: QIVLSQSPAILSASPGEKVTMTCRASSSVSYMHWYQQKPGSSPKPWIYATSNLASGVPARFSGSGSGTSYSLTISRVEAEDAATYYCQHWSSNPLTFGAGTKLELK | binds | – | – | – | –
Control-3C6 (antibody, V domains shown) VH: EVQLVQSGAEVKKPGASVKISCKASGYTFTDYNMDWVKQAPGQRLEWIGDINPHNGGPIYNQKFTGRATLTVDKSASTAYMELSSLRSEDTAVYYCARGELGHWYFDVWGQGTTVTVSS VL: DIVLTQSPASLALSPGERATLSCRASKSVSTSGYSYIHWYQQKPGQAPRLLIYLASNLDSGVPARFSGSGSGTDFTLTISSLEEEDFATYYCQHSRDLPPTFGQGTKLEIKR | – | – | – | – | IC50, STAT3 luciferase reporter in DLD1-IL-11R-pSTAT3-Luc cells [2]: 178 ng/mL; EC50 [3]: 22.5 µg/mL; IC50 [4]: 4.19 µg/mL
6B9 (antibody, V domains shown, Mouse hybridoma antibody purified on Protein A) VH: EVQLVESGGGSVKPGGSLKLSCAASGFTFSNYAMSWVRQSPEKRLEWVAEISNGGSYTYYPDTVTGRFTISRDNAKNTLYLEMSSLRSEDTAMYYCVRHYDGYYGGILDFAMDYWGQGTSVTVSS VL: DIQMTQSPSSLSASLGGKVTITCKASQDINKCIAWYQHKPGKGPRLLIHYTSTLQPGIPSRFSGSGSGRDYSFTISNLEPEDIATYYCLQYDYLHTFGGGTKLEIK | binds | – | – | – | –
26A6 (antibody, V domains shown, Mouse hybridoma antibody purified on Protein A) VH: QIQLVQSGPELKKPGETVKISCKASGYTFTNYGMNWVKQAPGKGLKWMGWINTNTGETTYAEEFKGRFAFSLEASVSTAHLQINNLKNEDTATYFCAKEDFYGMDYWGQGSSVTVSS VL: NIVMTQTPKFLLVSAGDRVTMTCKASQSVSNDVVWYQQKPGQSPKLLIYYASNRYTGVPDRFIGSGYGTEFTFTISTVQAEDLAVYFCQQDYSFPYTFGGGTKLEIK | binds | – | – | – | –
14F6 (antibody, V domains shown, Mouse hybridoma antibody purified on Protein A) VH: EVKLEESGGGLVQPGGSMKLSCVASGFTFSKYWMNWVRQSPEKGLEWVAEIRLKSDNYATQYAESVKGRFTMSRDDSKSSVYLQMKNLRAEDSGIYYCTKEGYDGYAMDYWGQGTSVTVSS VL: RIVMTQTPKFLLVSAGDRVTITCKASQNINNDVVWYQQKPGQSPKLLIYYASNRYTGVPDRFTGSGYGTDFTFTISTVQAEDLAVYFCQQDYISPWTFGGGTKLEIK | binds | – | – | – | –
16E12 (antibody, V domains shown, Mouse hybridoma antibody purified on Protein A; also called 鼠源16E12) VH: QVQLQQSGAELVKPGASVKLSCKASGYTFTSYYMYWVKQRPGQGLEWIGEINPSNGGTDFNEKFKNKATLTVDKSSSTAYMQLSSLTSEDSAVYYCTREEIHYGYDKGFAYWGQGTLVTVSA VL: NIMMTQSPSSLAVSAGEKVTMSCKSSQSVLHSSNQKNYLAWYQQKPGQSPKLLIYWASTRESGVPDRFTGSGSGTDFTLTISSIQAEDLAVYYCHQYFSLWTFGGGTKLEIK | binds | – | – | – | –
18B6 (antibody, V domains shown, Mouse hybridoma antibody purified on Protein A) VH: QVQLQQSGAELVKPGASVKLSCKASGYTFTNYYIYWMKQRPGQGLEWIGEINPSNGGTNFNEKFKSKATLTVDKSSSTAYMQLSSLTSEDSAVYFCSREEIHYGYDKGFAYWGQGTLVTVSA VL: NIMMTQSPSYLAVSAGEKVTMSCKSSQSVLNSSNQKNYLAWYQQKPGQSPKLLIYWASIRESGVPDRFTGSGSGTDFTLTISSVQAEDLAVYFCHQYFSSWTFGGGTRLEIK | binds | – | – | – | –
hu16E12-hIgG4 (antibody, V domains shown, also called 16E12人源化抗体; hu16E12 Wild Type) VH: QVQLVQSGAEVKKPGASVKVSCKASGYTFTSYYMYWVRQAPGQGLEWIGEINPSNGGTDFNEKFKNRVTMTVDTSISTAYMELSRLRSDDTAVYYCTREEIHYGYDKGFAYWGQGTLVTVSS VL: not shown | – | 0.0158 | 4.66e-05 | 2.96e+06 | IC50, STAT3 luciferase reporter in DLD1-IL-11R-pSTAT3-Luc cells [2]: 1.16 ng/mL; EC50 [3]: 0.0624 µg/mL; IC50 [4]: 0.0679 µg/mL
10C2 (antibody, V domains shown, Mouse hybridoma antibody purified on Protein A; also called 鼠源10C2) VH: QVHLQQSGTELMKPGASVKISCKAPGYTFSSYWIEWVKQRPGHGLEWIGEILPGSGNTNYNEKFKGKATFTADTSSNTAYMQLSSLTSEDSAVYYCASPSSTVDYAMDYWGQGTSVTVSS VL: DIVLTQSPASLGVSLGQRATISCRASRSVSTSGYNYMHWYQQKPGQPPKLLIFLASNLESGVPARFSGSGSGTDFTLNIHPVEEEDAATYHCQHSRELPYTFGGGTKLEIK | binds | – | – | – | –

Second part, led by results:

binding result [1] | Kd [5] [nM] | koff [5] [s⁻¹] | kon [5] [M⁻¹ s⁻¹] | Binder | other results
– | 0.00187 | 3.91e-06 | 2.09e+06 | hu16E12 L94H (antibody, V domains shown) VH: QVQLVQSGAEVKKPGASVKVSCKASGYTFTSYYMYWVRQAPGQGLEWIGEINPSNGGTDFNEKFKNRVTMTVDTSISTAYMELSRLRSDDTAVYYCTREEIHYGYDKGFAYWGQGTLVTVSS VL: not shown | –
– | 0.0189 | 5.25e-05 | 2.78e+06 | hu16E12 N65G (antibody, V domains shown, CDR mutant of hu16E12 (IgG4); placed on VH (CDR2, probably Kabat) by inference) VH: QVQLVQSGAEVKKPGASVKVSCKASGYTFTSYYMYWVRQAPGQGLEWIGEINPSNGGTDFNEKFKGRVTMTVDTSISTAYMELSRLRSDDTAVYYCTREEIHYGYDKGFAYWGQGTLVTVSS VL: not shown | –
– | 0.0245 | 7e-05 | 2.86e+06 | hu16E12 N54S (antibody, V domains shown, CDR mutant of hu16E12 (IgG4); placed on VH (CDR2, probably Kabat) by inference) VH: QVQLVQSGAEVKKPGASVKVSCKASGYTFTSYYMYWVRQAPGQGLEWIGEINPSSGGTDFNEKFKNRVTMTVDTSISTAYMELSRLRSDDTAVYYCTREEIHYGYDKGFAYWGQGTLVTVSS VL: not shown | –
– | 0.012 | 3.56e-05 | 2.96e+06 | hu16E12 G55A (antibody, V domains shown, CDR mutant of hu16E12 (IgG4); placed on VH (CDR2, probably Kabat) by inference) VH: QVQLVQSGAEVKKPGASVKVSCKASGYTFTSYYMYWVRQAPGQGLEWIGEINPSNAGTDFNEKFKNRVTMTVDTSISTAYMELSRLRSDDTAVYYCTREEIHYGYDKGFAYWGQGTLVTVSS VL: not shown | –
– | 0.0363 | 0.000101 | 2.78e+06 | hu16E12 N54Q (antibody, V domains shown, CDR mutant of hu16E12 (IgG4); placed on VH (CDR2, probably Kabat) by inference) VH: QVQLVQSGAEVKKPGASVKVSCKASGYTFTSYYMYWVRQAPGQGLEWIGEINPSQGGTDFNEKFKNRVTMTVDTSISTAYMELSRLRSDDTAVYYCTREEIHYGYDKGFAYWGQGTLVTVSS VL: not shown | –
– | 0.0268 | 7.51e-05 | 2.81e+06 | hu16E12 N60A N65G (antibody, V domains shown, CDR mutant of hu16E12 (IgG4); placed on VH (CDR2, probably Kabat) by inference) VH: QVQLVQSGAEVKKPGASVKVSCKASGYTFTSYYMYWVRQAPGQGLEWIGEINPSNGGTDFAEKFKGRVTMTVDTSISTAYMELSRLRSDDTAVYYCTREEIHYGYDKGFAYWGQGTLVTVSS VL: not shown | –
– | 0.00387 | 9.32e-06 | 2.41e+06 | hu16E12 G55V (antibody, V domains shown, CDR mutant of hu16E12 (IgG4); placed on VH (CDR2, probably Kabat) by inference) VH: QVQLVQSGAEVKKPGASVKVSCKASGYTFTSYYMYWVRQAPGQGLEWIGEINPSNVGTDFNEKFKNRVTMTVDTSISTAYMELSRLRSDDTAVYYCTREEIHYGYDKGFAYWGQGTLVTVSS VL: not shown | –
– | 0.0363 | 8.54e-05 | 2.35e+06 | hu16E12 E61Q N65G (antibody, V domains shown, CDR mutant of hu16E12 (IgG4); placed on VH (CDR2, probably Kabat) by inference) VH: QVQLVQSGAEVKKPGASVKVSCKASGYTFTSYYMYWVRQAPGQGLEWIGEINPSNGGTDFNQKFKGRVTMTVDTSISTAYMELSRLRSDDTAVYYCTREEIHYGYDKGFAYWGQGTLVTVSS VL: not shown | –
– | 0.0157 | 5.76e-05 | 3.68e+06 | hu16E12 K64Q N65G (antibody, V domains shown, CDR mutant of hu16E12 (IgG4); placed on VH (CDR2, probably Kabat numbering) by inference) VH: QVQLVQSGAEVKKPGASVKVSCKASGYTFTSYYMYWVRQAPGQGLEWIGEINPSNGGTDFNEKFQGRVTMTVDTSISTAYMELSRLRSDDTAVYYCTREEIHYGYDKGFAYWGQGTLVTVSS VL: not shown | –
– | 0.0149 | 2.2e-05 | 1.47e+06 | hu10C2-hIgG4 (antibody, V domains shown, also called 10C2人源化抗体) VH: QVHLVQSGAEVKKPGSSVKVSCKAPGYTFSSYWIEWVRQAPGQGLEWIGEILPGSGNTNYNEKFKGRATFTADTSTSTAYMELSSLRSEDTAVYYCASPSSTVDYAMDYWGQGTLVTVSS VL: EIVLTQSPGTLSLSPGERATLSCRASRSVSTSGYNYMHWYQQKPGQAPRLLIFLASNLESGIPDRFSGSGSGTDFTLTISRLEPEDFAVYYCQHSRELPYTFGQGTKLEIK | IC50, STAT3 luciferase reporter in DLD1-IL-11R-pSTAT3-Luc cells [2]: 4.86 ng/mL; EC50 [3]: 0.0659 µg/mL; IC50 [4]: 0.0811 µg/mL
